Consider 21 molecules from patent publication EP4671273A1 (Anaveon AG, dated 2025).

Substitutions are numbered along the chain they refer to.

To fix the notation:
B1: XVT458-z2-m6 (antibody, human IgG1, V domains shown)
VH: VQLVQSGAEVKKPGASVKVSCKASGYTFTNFYIHWVRQAPGQGLEWMGSIYPNYGITAYNQKFKDRVTMTVDTSTSTAYMELRSLRSDDTAVYYCARGYSYAMDYWGQGTTVTVSS
VL: DIQMTQSPSSVSASVGDRVTITCSASQGISGDLNWYQQKPGKAPKLLIYHTSQLHSDVPSRFSGSGSGTDFTLTISSLQPEDFATYYCQGYSKDLLTFGGGTKLEIK
notes: human IgG1; also called anti-PD-1 antibody clone XVT458-z2-m6
B2: DKR699 (antibody, human IgG1, V domains shown)
VH: B1 VH with I56D
VL: B1 VL
notes: human IgG1
B3: ICW519 (antibody, human IgG1, V domains shown)
VH: B1 VH with K64Q
VL: B1 VL
notes: human IgG1
B4: ACH836 (antibody, human IgG1, V domains shown)
VH: B1 VH
VL: B1 VL with I29A
notes: human IgG1
B5: BBJ602 (antibody, human IgG1, V domains shown)
VH: B1 VH with A102G
VL: B1 VL
notes: human IgG1
B6: JPK663 (antibody, human IgG1, V domains shown)
VH: B1 VH
VL: B1 VL with I21A
notes: human IgG1
B7: KOB135 (antibody, human IgG1, V domains shown)
VH: B1 VH
VL: B1 VL with L54Q
notes: human IgG1
B8: ZAP122 (antibody, human IgG1, V domains shown)
VH: QVQLQESGPGLVKPSETLSLTCTVSGGSISSDFWGWIRQPPGKGLEWIGYISSRGSTNYNPSLKRRVTISVDTSRNQFSLKLSSVTAADTAVYYCARSAGVTDFDFWGQGTLVTVSS
VL: DIQMTQSPSSVSASVGDRVTITCRASQGISSWLAWYQHKPGKAPKLLIYVASSLQSGVPSRFSGSGSGTDFTLTISSLQPEDFATYYCQQANSFPLTFGGGTKVEIK
B9: LKK631 (antibody, human IgG1, V domains shown)
VH: EVQLQQFGAEVVKPGASVKMSCKASGYTFTDYNMNWVKQSHEKSLEWIGDIHPKFHSTNYNQKFKGKATLTIDTSSSTAYMELRNLTSEDTAVYYCARVGNYVYFVMDYWGQGTSVTVSS
VL: SIVMTQTPKFLLVSAGDRVTITCKASQSVSNDVAWYQQKPGQSPKLLIYYASNRYTGVPDRFSGSGYGTDFTFTISTVQAEDLAVYFCQQDYTSPWTFGGGTKLEIK
B10: MIZ926 (antibody, human IgG1, V domains shown)
VH: EVQLVESGGGSVKPGGSLKLSCAASGLTFSHYYMYWVRQTPEKRLEWVAIISDGGDYTHYSDSVKGRFTISRDNAKNNLYLQMSSLQSEDTAMYYCAGDYGYGYEGWFAYWGQGTLVTVST
VL: DIVMTQSQKFMSTSVGDRVSVTCKASQNVDTYVAWYQQKPGQSPKALIYSTSYRYSGVPDRFTGSGSGTDFTLTISNVQSEDLAEYFCQQYNSYPWTFGGGTKLEIK
B11: ZAP122m27 Fab (Fab, V domains shown)
VH: B8 VH with F106A
VL: B8 VL
notes: Fab
B12: ZAP122m20 Fab (Fab, V domains shown)
VH: B8 VH with S98A
VL: B8 VL
notes: Fab
B13: ZAP122m24 Fab (Fab, V domains shown)
VH: B8 VH with D103A
VL: B8 VL
notes: Fab
B14: ZAP122m23 Fab (Fab, V domains shown)
VH: B8 VH with T102A
VL: B8 VL
notes: Fab
B15: ZAP122m22 Fab (Fab, V domains shown)
VH: B8 VH with V101A
VL: B8 VL
notes: Fab
B16: ZAP122m21 Fab (Fab, V domains shown)
VH: B8 VH with G100A
VL: B8 VL
notes: Fab
B17: ZAP122m25 Fab (Fab, V domains shown)
VH: B8 VH with F104A
VL: B8 VL
notes: Fab
B18: ZAP122m19 Fab (Fab, V domains shown)
VH: B8 VH with R97A
VL: B8 VL
notes: Fab
B19: ZAP122p1 Fab (Fab, V domains shown)
VH: B8 VH
VL: B8 VL with N92Q
notes: Fab
B20: ZAP122m26 Fab (Fab, V domains shown)
VH: B8 VH with D105A
VL: B8 VL
notes: Fab
B21: ZAP122p2 Fab (Fab, V domains shown)
VH: B8 VH
VL: B8 VL with N92S
notes: Fab

T1 sequence (Q15116 25-167 limits assumed): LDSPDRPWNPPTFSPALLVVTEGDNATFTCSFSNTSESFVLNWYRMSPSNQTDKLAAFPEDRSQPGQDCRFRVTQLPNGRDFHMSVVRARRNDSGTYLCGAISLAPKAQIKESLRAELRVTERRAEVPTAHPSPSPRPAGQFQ

One assay has as its target T1, human PD-1 (#PD1-H82E4, AcroBiosystems) (human, UniProt Q15116 25-167).
T1 construct: bought
Put plainly: SPR, PD-1 on captured IgG1.
Regarding B1, the Kd was 0.522 nM, the off-rate (koff) turned out to be 0.000174 s⁻¹ and the kon came out at 333000 M⁻¹ s⁻¹.

Regarding B2, binding was characterised by a dissociation constant (Kd) of 0.606 nM, the koff worked out at 0.000121 s⁻¹ and the kon is 200000 M⁻¹ s⁻¹.

Molecule B3 displayed a Kd of 0.511 nM, a koff of 0.000187 s⁻¹ and a kon of 365000 M⁻¹ s⁻¹.

B4 registered a Kd of 0.342 nM, a koff of 0.000117 s⁻¹ and a kon of 344000 M⁻¹ s⁻¹.

With B5, binding was put at a Kd of 18.1 nM, the koff turned out to be 0.0278 s⁻¹ and the kon is 1.54e+06 M⁻¹ s⁻¹.

In turn, B6 registered a Kd of 0.429 nM, a koff of 0.000144 s⁻¹ and a kon of 336000 M⁻¹ s⁻¹.

In turn, B7 had a Kd of 0.506 nM, a koff of 0.000166 s⁻¹ and a kon of 329000 M⁻¹ s⁻¹.

Another assay deals with T2, cynomolgus PD-1 (#PD1-C52H5, AcroBiosystems) (cynomolgus monkey, UniProt B0LAJ3 25-170).
T2 construct: bought; also called cynomolgus monkey PD-1; not shown: the vendor's tag on the recombinant protein (AcroBiosystems #PD1-C52H5)
T2 sequence (B0LAJ3 entry or part of it limits assumed, form in doubt): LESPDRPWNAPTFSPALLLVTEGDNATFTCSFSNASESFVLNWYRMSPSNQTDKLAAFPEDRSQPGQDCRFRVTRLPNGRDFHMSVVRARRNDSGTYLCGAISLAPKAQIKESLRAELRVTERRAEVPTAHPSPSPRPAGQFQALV
Put plainly: SPR, PD-1 on captured IgG1.
In the case of B1, the Kd was 0.306 nM, the koff is 0.000153 s⁻¹ and the kon came out at 499000 M⁻¹ s⁻¹.

The molecule B2 had a Kd of 0.86 nM, a koff of 0.000203 s⁻¹ and a kon of 236000 M⁻¹ s⁻¹.

Take B3: the Kd amounted to 0.296 nM, the koff was 0.000176 s⁻¹ and the kon was 592000 M⁻¹ s⁻¹.

As for B4, the Kd came to 0.205 nM, the koff stood at 0.000101 s⁻¹ and the kon came to 493000 M⁻¹ s⁻¹.

Take B5: the Kd is 8.53 nM, the koff came out at 3.15 s⁻¹ and the kon came out at 3.69e+08 M⁻¹ s⁻¹.

For the molecule B6, the Kd turned out to be 0.246 nM, the koff is 0.000124 s⁻¹ and the kon amounted to 504000 M⁻¹ s⁻¹.

In turn, B7 registered a dissociation constant Kd of 0.362 nM, a dissociation rate constant (koff) of 0.000179 s⁻¹ and a kon of 495000 M⁻¹ s⁻¹.

The target in the next assay is recombinant human IL-21 (rhIL-21) (human, UniProt Q9HBE4 30-162, limits assumed). As to the kind of experiment: cell-based or functional assay.
Chain of recombinant human IL-21 (rhIL-21) (Q9HBE4 30-162 limits assumed): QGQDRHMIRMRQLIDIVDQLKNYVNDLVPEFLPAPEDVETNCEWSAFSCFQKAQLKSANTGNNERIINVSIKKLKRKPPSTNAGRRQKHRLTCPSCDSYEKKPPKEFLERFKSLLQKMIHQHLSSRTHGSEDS
Consider B8, for which the “% pSTAT3+ Jurkat cells, 0.1 nM rhIL-21 + 0 nM antibody” value stood at 82%; the “% pSTAT3+ Jurkat cells, 0.1 nM rhIL-21 + 0.1012 nM antibody” value worked out at 33.3%; the “% pSTAT3+ Jurkat cells, 0.1 nM rhIL-21 + 0.1602 nM antibody” value is 33.2%; the “% pSTAT3+ Jurkat cells, 0.1 nM rhIL-21 + 0.2536 nM antibody” value amounted to 18.2%. The “% pSTAT3+ Jurkat cells, 0.1 nM rhIL-21 + 0.4015 nM antibody” value came out at 22.8%; the “% pSTAT3+ Jurkat cells, 0.1 nM rhIL-21 + 0.6355 nM antibody” value turned out to be 33%; the “% pSTAT3+ Jurkat cells, 0.1 nM rhIL-21 + 1.006 nM antibody” value came out at 10.8%; the “% pSTAT3+ Jurkat cells, 0.1 nM rhIL-21 + 1.5925 nM antibody” value came out at 9.01%. The “% pSTAT3+ Jurkat cells, 0.1 nM rhIL-21 + 2.5209 nM antibody” value amounted to 6.78%; the “% pSTAT3+ Jurkat cells, 0.1 nM rhIL-21 + 3.9906 nM antibody” value amounted to 5.32%; the “% pSTAT3+ Jurkat cells, 0.1 nM rhIL-21 + 6.3171 nM antibody” value worked out at 8.64%; the “% pSTAT3+ Jurkat cells, 0.1 nM rhIL-21 + 10 nM antibody” value was 6.63%.

In the case of B9, the “% pSTAT3+ Jurkat cells, 0.1 nM rhIL-21 + 0 nM antibody” value amounted to 82.1%; the “% pSTAT3+ Jurkat cells, 0.1 nM rhIL-21 + 0.1012 nM antibody” value is 81%; the “% pSTAT3+ Jurkat cells, 0.1 nM rhIL-21 + 0.1602 nM antibody” value came out at 72.4%; the “% pSTAT3+ Jurkat cells, 0.1 nM rhIL-21 + 0.2536 nM antibody” value was 71.4%. Also, the “% pSTAT3+ Jurkat cells, 0.1 nM rhIL-21 + 0.4015 nM antibody” value was 71.5%; the “% pSTAT3+ Jurkat cells, 0.1 nM rhIL-21 + 0.6355 nM antibody” value amounted to 65.6%; the “% pSTAT3+ Jurkat cells, 0.1 nM rhIL-21 + 1.006 nM antibody” value stood at 69.5%; the “% pSTAT3+ Jurkat cells, 0.1 nM rhIL-21 + 1.5925 nM antibody” value is 58.7%. Moreover, the “% pSTAT3+ Jurkat cells, 0.1 nM rhIL-21 + 2.5209 nM antibody” value came to 55.1%; the “% pSTAT3+ Jurkat cells, 0.1 nM rhIL-21 + 3.9906 nM antibody” value was 42%; the “% pSTAT3+ Jurkat cells, 0.1 nM rhIL-21 + 6.3171 nM antibody” value was 44.5%; the “% pSTAT3+ Jurkat cells, 0.1 nM rhIL-21 + 10 nM antibody” value came to 41.1%.

For the molecule B10, the “% pSTAT3+ Jurkat cells, 0.1 nM rhIL-21 + 0 nM antibody” value came out at 82.5%; the “% pSTAT3+ Jurkat cells, 0.1 nM rhIL-21 + 0.1012 nM antibody” value was 75.1%; the “% pSTAT3+ Jurkat cells, 0.1 nM rhIL-21 + 0.1602 nM antibody” value amounted to 72.4%; the “% pSTAT3+ Jurkat cells, 0.1 nM rhIL-21 + 0.2536 nM antibody” value is 70.7%. Further, the “% pSTAT3+ Jurkat cells, 0.1 nM rhIL-21 + 0.4015 nM antibody” value was determined as 69.9%; the “% pSTAT3+ Jurkat cells, 0.1 nM rhIL-21 + 0.6355 nM antibody” value is 68.5%; the “% pSTAT3+ Jurkat cells, 0.1 nM rhIL-21 + 1.006 nM antibody” value worked out at 65.3%; the “% pSTAT3+ Jurkat cells, 0.1 nM rhIL-21 + 1.5925 nM antibody” value turned out to be 64.8%. Further, the “% pSTAT3+ Jurkat cells, 0.1 nM rhIL-21 + 2.5209 nM antibody” value is 64.5%; the “% pSTAT3+ Jurkat cells, 0.1 nM rhIL-21 + 3.9906 nM antibody” value was determined as 61.8%; the “% pSTAT3+ Jurkat cells, 0.1 nM rhIL-21 + 6.3171 nM antibody” value was 57.5%; the “% pSTAT3+ Jurkat cells, 0.1 nM rhIL-21 + 10 nM antibody” value was found to be 57.5%.

For the next assay, the target named is T3, Recombinant hIL-21-Fc (AcroBiosystems) (human, UniProt Q9HBE4 30-162).
T3 construct: bought; also called rhIL-21; not shown: Fc of the bought reagent, not described
T3 sequence (Q9HBE4 30-162): as the sequence (Q9HBE4 30-162 limits assumed) above
As to the kind of experiment: SPR, Fab on captured rhIL-21-Fc.
With B11, the Kd is under 0.0242 nM, the off-rate constant (koff) was under 1e-05 s⁻¹ and the kon came to 414000 M⁻¹ s⁻¹.

On to B12, for which the equilibrium dissociation constant (Kd) was found to be 0.0435 nM, the koff was found to be 1.94e-05 s⁻¹ and the kon came to 446000 M⁻¹ s⁻¹.

Take B13: the binding result is listed as “no binding”.

On to B14, for which the Kd is 0.137 nM, the koff was 3.29e-05 s⁻¹ and the kon worked out at 240000 M⁻¹ s⁻¹.

As for B15, the Kd stood at 8.73 nM, the koff was found to be 0.0034 s⁻¹ and the association rate constant (kon) was 389000 M⁻¹ s⁻¹.

For B16, the Kd stood at 2.19 nM, the koff turned out to be 0.0011 s⁻¹ and the association rate constant (kon) was 505000 M⁻¹ s⁻¹.

With B17, the dissociation constant (Kd) was found to be 5.6 nM, the koff was 0.00059 s⁻¹ and the kon came out at 105000 M⁻¹ s⁻¹.

On to B18, for which the equilibrium dissociation constant (Kd) worked out at 6.08 nM, the koff was determined as 0.000775 s⁻¹ and the on-rate (kon) stood at 127000 M⁻¹ s⁻¹.

For B19, the Kd worked out at 0.0386 nM, the koff is 1.38e-05 s⁻¹ and the kon is 357000 M⁻¹ s⁻¹.

With B20, the Kd is 3.01 nM, the off-rate constant (koff) amounted to 0.000701 s⁻¹ and the kon came to 233000 M⁻¹ s⁻¹.

On to B21, for which the Kd is 0.0328 nM, the off-rate constant (koff) was 1.14e-05 s⁻¹ and the kon came out at 348000 M⁻¹ s⁻¹.
